Laboratory results from patent publication US20200199204A1 (UNITED STATES OF AMERICA AS REPRESENTED BY THE SECRETARY …, published 2020).

Experiments:
Assay in all cases: cell-based or functional assay
HIV-1 Env of CAP256.PI = HIV-1 Env of CAP256.PI (HIV-1)
HIV-1 Env of CAP256.SU = HIV-1 Env of CAP256.SU (HIV-1)
HIV-1 Env of 96ZM651.02 = HIV-1 Env of 96ZM651.02 (HIV-1)
HIV-1 Env of CAP210.E8 = HIV-1 Env of CAP210.E8 (HIV-1)
HIV-1 Env of CAP244.D3 = HIV-1 Env of CAP244.D3 (HIV-1)
HIV-1 Env of CAP45.G3 = HIV-1 Env of CAP45.G3 (HIV-1)
HIV-1 Env of DU156.12 = HIV-1 Env of DU156.12 (HIV-1)
HIV-1 Env of DU172.17 = HIV-1 Env of DU172.17 (HIV-1)
HIV-1 Env of DU422.01 = HIV-1 Env of DU422.01 (HIV-1)
HIV-1 Env of ZM109.4 = HIV-1 Env of ZM109.4 (HIV-1)
HIV-1 Env of ZM135.10a = HIV-1 Env of ZM135.10a (HIV-1)
HIV-1 Env of ZM197.7 = HIV-1 Env of ZM197.7 (HIV-1)
HIV-1 Env of ZM214.15 = HIV-1 Env of ZM214.15 (HIV-1)
HIV-1 Env of ZM233.6 = HIV-1 Env of ZM233.6 (HIV-1)
HIV-1 Env of ZM249.1 = HIV-1 Env of ZM249.1 (HIV-1)
HIV-1 Env of ZM53.12 = HIV-1 Env of ZM53.12 (HIV-1)
HIV-1 Env of 0260.v5.c36 = HIV-1 Env of 0260.v5.c36 (HIV-1)
HIV-1 Env of BG505.w6m = HIV-1 Env of BG505.w6m (HIV-1)
HIV-1 Env of KER2008.12 = HIV-1 Env of KER2008.12 (HIV-1)
HIV-1 Env of KER2018.11 = HIV-1 Env of KER2018.11 (HIV-1)
HIV-1 Env of MB201 = HIV-1 Env of MB201 (HIV-1)
HIV-1 Env of MB539.2B7 = HIV-1 Env of MB539.2B7 (HIV-1)
HIV-1 Env of Q168.a2 = HIV-1 Env of Q168.a2 (HIV-1)
HIV-1 Env of Q23.17 = HIV-1 Env of Q23.17 (HIV-1)
HIV-1 Env of Q259.d2.17 = HIV-1 Env of Q259.d2.17 (HIV-1)
HIV-1 Env of Q461.e2 = HIV-1 Env of Q461.e2 (HIV-1)
HIV-1 Env of Q769.d22 = HIV-1 Env of Q769.d22 (HIV-1)
HIV-1 Env of Q842.d12 = HIV-1 Env of Q842.d12 (HIV-1)
HIV-1 Env of RW020.2 = HIV-1 Env of RW020.2 (HIV-1)
HIV-1 Env of UG037.8 = HIV-1 Env of UG037.8 (HIV-1)
HIV-1 Env of 6535.3 = HIV-1 Env of 6535.3 (HIV-1)
HIV-1 Env of AC10.29 = HIV-1 Env of AC10.29 (HIV-1)
HIV-1 Env of CAAN.A2 = HIV-1 Env of CAAN.A2 (HIV-1)
HIV-1 Env of PVO.04 = HIV-1 Env of PVO.04 (HIV-1)
HIV-1 Env of QH0692.42 = HIV-1 Env of QH0692.42 (HIV-1)
HIV-1 Env of REJO.67 = HIV-1 Env of REJO.67 (HIV-1)
HIV-1 Env of RHPA.7 = HIV-1 Env of RHPA.7 (HIV-1)
HIV-1 Env of SC422.8 = HIV-1 Env of SC422.8 (HIV-1)
HIV-1 Env of THRO.18 = HIV-1 Env of THRO.18 (HIV-1)
HIV-1 Env of TRJO.58 = HIV-1 Env of TRJO.58 (HIV-1)
HIV-1 Env of TRO.11 = HIV-1 Env of TRO.11 (HIV-1)
HIV-1 Env of WITO.33 = HIV-1 Env of WITO.33 (HIV-1)
HIV-1 Env of 191821.E6.1 = HIV-1 Env of 191821.E6.1 (HIV-1)
HIV-1 Env of 3016.V5.c36 = HIV-1 Env of 3016.V5.c36 (HIV-1)
HIV-1 Env of 6405.v4.c34 = HIV-1 Env of 6405.v4.c34 (HIV-1)
HIV-1 Env of C1080.c3 = HIV-1 Env of C1080.c3 (HIV-1)
HIV-1 Env of CM244.ec1 = HIV-1 Env of CM244.ec1 (HIV-1)

Measured: neutralization IC50

B1: CAP256-VRC26.11 (antibody, V domains shown)
VH: EVQLVESGGGVVPPGKSLTLSCVASRFTFSAFGMHWVRQAPGKGLEWVASISFAGIKKYYADSVKGRFSISRDNSNTLFLQMNGLRGEDTGLYHCVKDMRELECEEWASDYYDFGKPQPCLDRRGVSGISAWWGPGTMVTVSS
VL: QSVLTQPPSVSAAPGQNVTISCSGPPSHIEKNDVSWYQRLPGMAPKMVIYESKRRPLGIPVRFSASRSGSSATLVITGLQTADEADYYCGTWDGRMNFGTGTTVSVLG
0.055 µg/mL: HIV-1 Env of CAP256.SU | HIV-1 Env of ZM197.7
> 50 µg/mL: HIV-1 Env of CAP256.PI | HIV-1 Env of 96ZM651.02 | HIV-1 Env of CAP244.D3 | HIV-1 Env of CAP45.G3 | HIV-1 Env of DU156.12 | HIV-1 Env of DU172.17 | HIV-1 Env of ZM109.4 | HIV-1 Env of ZM135.10a | HIV-1 Env of ZM214.15 | HIV-1 Env of 0260.v5.c36 | HIV-1 Env of KER2008.12 | HIV-1 Env of MB201 | HIV-1 Env of MB539.2B7 | HIV-1 Env of Q168.a2 | HIV-1 Env of Q23.17 | HIV-1 Env of Q259.d2.17 | HIV-1 Env of Q461.e2 | HIV-1 Env of Q769.d22 | HIV-1 Env of Q842.d12 | HIV-1 Env of RW020.2 | HIV-1 Env of UG037.8 | HIV-1 Env of 6535.3 | HIV-1 Env of AC10.29 | HIV-1 Env of CAAN.A2 | HIV-1 Env of QH0692.42 | HIV-1 Env of REJO.67 | HIV-1 Env of RHPA.7 | HIV-1 Env of SC422.8 | HIV-1 Env of THRO.18 | HIV-1 Env of TRJO.58 | HIV-1 Env of TRO.11 | HIV-1 Env of WITO.33 | HIV-1 Env of 191821.E6.1 | HIV-1 Env of 6405.v4.c34
0.081 µg/mL: HIV-1 Env of ZM53.12
10.8 µg/mL: HIV-1 Env of PVO.04
11.5 µg/mL: HIV-1 Env of DU422.01
26.7 µg/mL: HIV-1 Env of CM244.ec1
34.5 µg/mL: HIV-1 Env of ZM249.1
4.2 µg/mL: HIV-1 Env of BG505.w6m
1.76 µg/mL: HIV-1 Env of KER2018.11
0.073 µg/mL: HIV-1 Env of CAP210.E8
0.322 µg/mL: HIV-1 Env of ZM233.6
0.018 µg/mL: HIV-1 Env of C1080.c3
0.3 µg/mL: HIV-1 Env of 3016.V5.c36

B2: CAP256-VRC26.12 (antibody, V domains shown)
VH: EVQLVQSGGGVVQPGRSLRLSCAAPYFEFGRYGFHWVRQAPGKGLEWVASISFAGRDYYHSPSVWGRFTISRDNSKNTLYLQMNSLRIEDTALYFCARDLRESECEEWESDYYDFGKKGPCVKPRGVAGGLDLWGQGTMVIVSS
VL: QSVLTQPPSVSTAPGQTVTVSCSGGTSNTGNNFVSWYQHLPGTAPKLLIYENNKRPLGVPDRFSGAKSGTSATLAITGLQTGDEGDYYCATWSGSLNIGTGTKVSVLG
0.032 µg/mL: HIV-1 Env of CAP256.SU
> 50 µg/mL: HIV-1 Env of CAP256.PI | HIV-1 Env of 96ZM651.02 | HIV-1 Env of CAP244.D3 | HIV-1 Env of CAP45.G3 | HIV-1 Env of DU156.12 | HIV-1 Env of DU172.17 | HIV-1 Env of DU422.01 | HIV-1 Env of ZM109.4 | HIV-1 Env of ZM135.10a | HIV-1 Env of ZM197.7 | HIV-1 Env of ZM214.15 | HIV-1 Env of ZM233.6 | HIV-1 Env of ZM249.1 | HIV-1 Env of 0260.v5.c36 | HIV-1 Env of BG505.w6m | HIV-1 Env of KER2008.12 | HIV-1 Env of KER2018.11 | HIV-1 Env of MB201 | HIV-1 Env of MB539.2B7 | HIV-1 Env of Q168.a2 | HIV-1 Env of Q23.17 | HIV-1 Env of Q259.d2.17 | HIV-1 Env of Q461.e2 | HIV-1 Env of Q769.d22 | HIV-1 Env of Q842.d12 | HIV-1 Env of RW020.2 | HIV-1 Env of UG037.8 | HIV-1 Env of 6535.3 | HIV-1 Env of AC10.29 | HIV-1 Env of CAAN.A2 | HIV-1 Env of PVO.04 | HIV-1 Env of QH0692.42 | HIV-1 Env of REJO.67 | HIV-1 Env of RHPA.7 | HIV-1 Env of SC422.8 | HIV-1 Env of THRO.18 | HIV-1 Env of TRJO.58 | HIV-1 Env of TRO.11 | HIV-1 Env of WITO.33 | HIV-1 Env of 191821.E6.1 | HIV-1 Env of 6405.v4.c34 | HIV-1 Env of C1080.c3 | HIV-1 Env of CM244.ec1
0.211 µg/mL: HIV-1 Env of ZM53.12
0.072 µg/mL: HIV-1 Env of CAP210.E8
7.93 µg/mL: HIV-1 Env of 3016.V5.c36
